Results taken from PMC9245472.

Target: T1, ArgR (Thermotoga neapolitana) (UniProt Q9KWZ0)
T1 sequence: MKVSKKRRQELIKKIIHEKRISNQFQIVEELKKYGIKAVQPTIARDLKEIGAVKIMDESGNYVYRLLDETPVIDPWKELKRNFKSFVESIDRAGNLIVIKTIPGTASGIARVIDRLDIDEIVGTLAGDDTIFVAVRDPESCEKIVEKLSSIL
Assay: EMSA
Details: 10 mM Tris-HCl pH 7.5, 250 mM KCl, 5 mM MgCl2, 2.5 mM CaCl2, 2.5% glycerol, 0.5 mM DTT, 100-fold sonicated herring sperm DNA, 37 C 30 min; 2% agarose in TAE …

**Q.** With “TGTTACTCTTGAGTTACCAAAACAAAAACAAATGAATTTTTCTTCCAGAGGTGTTATATTTATGCTGTATAATTGTATGTGTTTTCAATCTGAAAGATGGAGGTGTTCAACTTGAAGGTGTCGAAAAAAAGAAGACAGGAACTCATAA (double strand) [argRo (ArgRTn)]” as the sequence, how does the binding read?
**A.** The binding was “binds”.
